In patent publication US20250277050A1 (published 2025):

T1: human CD30 expressed on the cell surface (human, UniProt P28908 19-595)
T1 chain: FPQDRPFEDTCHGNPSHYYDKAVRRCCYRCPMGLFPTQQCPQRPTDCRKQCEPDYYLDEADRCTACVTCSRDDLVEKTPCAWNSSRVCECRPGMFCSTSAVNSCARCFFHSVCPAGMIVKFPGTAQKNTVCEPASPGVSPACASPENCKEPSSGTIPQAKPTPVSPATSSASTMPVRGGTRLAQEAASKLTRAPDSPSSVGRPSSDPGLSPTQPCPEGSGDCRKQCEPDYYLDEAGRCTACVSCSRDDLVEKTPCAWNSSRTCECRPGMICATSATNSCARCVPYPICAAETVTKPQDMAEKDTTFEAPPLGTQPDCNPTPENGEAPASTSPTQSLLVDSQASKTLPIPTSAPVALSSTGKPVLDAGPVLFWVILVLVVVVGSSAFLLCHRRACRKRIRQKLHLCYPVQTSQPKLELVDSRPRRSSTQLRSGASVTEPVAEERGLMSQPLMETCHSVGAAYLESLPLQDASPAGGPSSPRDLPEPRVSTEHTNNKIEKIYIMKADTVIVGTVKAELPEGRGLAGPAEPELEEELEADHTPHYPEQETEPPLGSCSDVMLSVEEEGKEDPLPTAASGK


Legend:
[1] = molecular target: T1, human CD30 expressed on the cell surface; assay: SPR; CD30 immobilized on CM5 chip, antibody as analyte
[2] = molecular target: T1, human CD30 expressed on the cell surface; assay: as above
[3] = molecular target: T1, human CD30 expressed on the cell surface; assay: SPR; antibody immobilized on Protein G chip, CD30 as analyte

Binder	Ka [1]	Kd [2]	Kd [3]
12B1 (antibody, V domains shown) VH: EVKLEESGTELVKPGASVKLSCKASGYTFTSYWMHWVKQRPGQGLEWIGNINPTNGGTNYNEKFKSKATLTVDKSSRTAYMQLSSLTSGDSAVYYCARRDFITTSGFAYWGQGTLVTVSA VL: DIVMTQTTASLSTSVGETVTITCRASGNLHSYLTWYQQKQGKSPQLLVYNAKTLADGVPSRFSGSGSGTQYSLKIDSLQPEDFGSYYCQHFWTTPFTFGSGTKLEIK	5.02e+09 M⁻¹	0.199 nM	
8D10 (antibody, V domains shown) VH: QVQLQESGTELVKPGASVKLSCKASGYTFTSYWMHWMKQRPGQGLEWIGNINPSNGGTNYNEKFKNKATLTVDKSSSTAYMQLSSLTSEDSAVYYCARRDYYYGSSYGFDVWGTGTTVTVSS VL: DIVMTQSPASQSASLGESVTITCLASQTIGTWLAWYQQKPGKSPQFLIYAATSLADGVPSRFSGSGSGTKFSFKISSLQAEDFVSYYCQQLYSTPFTFGGGTKLEIK	1.69e+10 M⁻¹	0.0592 nM	1.14 nM
10C2 (antibody, V domains shown) VH: QVQLEQSGPVLVKPGASVKMSCKASGYTFTDYYMNWVKQSHGKSLEWIGVINPYNGGTSYNQKFKGKATLTVDKSSSTACMELNCLTSEDSAVYYCTLGAYWGQGTSVTVSS VL: not shown	1.65e+09 M⁻¹	0.607 nM	1.76 nM

Other lines, results leading:

Ka [1]	Kd [2]	Kd [3]	Binder
1.02e+09 M⁻¹	0.978 nM		15B8 (antibody, V domains shown) VH: QVQLEQSGTELVKPGASVKLSCKASGYTFTSYWMHWVKQRPGQGLEWIGNINPSNGGTNYNEKFKSKATLTVDKSSSTAYMQLSSLTSEDSAIYYCARRNNYYASSPFAYWGQGTLVSVSA VL: DIVMTQTPASLSASVGETVTITCRASGNIHNYLAWYQQKQGKSPQLLVYNAKTLADGVPSRFSGSGSGTQYSLKINSLQPEDFGSYYCQHFWSTPFTFGSGTKLEIK
6.7e+09 M⁻¹	0.149 nM		13H1 (antibody, V domains shown) VH: QVQLQQSGTELVKPGASVKLSCKASGHTFTSYWMHWVKQRPGQGLEWIGNINPSNGGTNYNEKFKSKATLTVDKSSSTAYMQLSSLTSEDSAVYYCARRGYYGSSSYWSFDVWGTGTTVTVSS VL: DIVMTQTPKSMSMSVGERVTLSCKASENVGTYVSWYQQKPEQSPKVLIYGASNRFTGVPDRFTGSGSATDFTLTISSVQTEDLADYHCGQSYSYPLTFGAGTKLELK
